The text below walks through data of PMC2873280, “Generation of anti-TLR2 intrabody mediating inhibition of macrophage surface TLR2 expression and TLR2-driven cell activation” (BMC Biotechnology, 2010).

This experiment deals with T1, N-terminally Flag-tagged human TLR2 (Homo sapiens, UniProt O60603).
T1 construct: Toll-like receptor 2, human; also called hTLR2; Toll-like receptor 2; source: HEK293, transiently transfected, in lysate; not shown: Flag, N-terminal, kept
As to the kind of experiment: co-IP; HEK293 cells co-transfected with Flag-tagged human TLR2 and myc-tagged intrabody; lysed after 48 h (0.5% NP40, 150 mM NaCl); IP with myc-specific antibody and protein G beads, 4°C, 16 h, 5 washes; blot with tag-specific antibodies. The following applies: partners not purified.

T1 sequence (O60603 21-784): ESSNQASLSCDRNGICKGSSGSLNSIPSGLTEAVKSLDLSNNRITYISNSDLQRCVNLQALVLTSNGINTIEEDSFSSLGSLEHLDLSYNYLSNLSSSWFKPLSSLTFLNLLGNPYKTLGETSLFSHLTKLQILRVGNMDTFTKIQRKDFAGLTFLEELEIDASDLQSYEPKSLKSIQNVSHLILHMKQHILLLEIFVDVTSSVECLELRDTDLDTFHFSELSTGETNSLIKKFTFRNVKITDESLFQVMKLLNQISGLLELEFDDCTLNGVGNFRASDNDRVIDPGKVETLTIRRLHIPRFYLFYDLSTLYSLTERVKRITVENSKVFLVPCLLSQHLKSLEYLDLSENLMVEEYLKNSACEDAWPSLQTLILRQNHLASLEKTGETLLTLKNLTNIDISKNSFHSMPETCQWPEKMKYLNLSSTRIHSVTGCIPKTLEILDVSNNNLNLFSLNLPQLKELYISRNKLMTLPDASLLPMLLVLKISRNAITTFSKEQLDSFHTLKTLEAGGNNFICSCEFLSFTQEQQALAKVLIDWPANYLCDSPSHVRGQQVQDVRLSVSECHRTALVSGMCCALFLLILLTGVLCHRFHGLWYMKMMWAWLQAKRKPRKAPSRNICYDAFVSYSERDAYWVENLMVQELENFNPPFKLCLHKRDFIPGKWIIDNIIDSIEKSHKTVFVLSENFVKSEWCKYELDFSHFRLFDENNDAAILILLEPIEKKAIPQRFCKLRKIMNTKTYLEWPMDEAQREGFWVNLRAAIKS

B1: anti-TLR2 scFv ER intrabody (αT2ib) (scFv, V domains shown)
VH: QVQLQQSGPELVNPGASVKLSCKASGFTFTTYGINWVKQGPGQGLEWIGWIYPRDGSTNFNENFKDKAALTVDTSSSTAYMELHSLTSEDSAVYFCARLTGGTFLDYWGQGTTVTVSS
VL: DIELTQSPASLAVSLGQRATISCRASESVEYYGTSLMQWYQQKPGQPPKLLIFGASNVESGVPVRFSGSGSGTDFSLNIHPVEEDDIVMYFCQQSRKLPWTFGGGTKLEIK
notes: VH of mouse mAb T2.5 (anti human/murine TLR2), amplified from hybridoma cDNA with consensus primers; synthetic 15 amino acid linker, printed as (Gly4Ser)3, between VH and VL; VL (kappa) of mouse mAb T2.5, amplified from hybridoma cDNA with consensus primers; Apparent size about 30 kDa; also called anti-TLR2 ER intrabody; TLR2 specific intrabody; source: HEK293, transiently transfected …
On to B1, for which the binding result is recorded as “binds”.
